Publication PMC10952621

Legend:
[1] = target: LQTS-associated calmodulin variant N97I (human); assay: ITC; peptide titrated into CaM (~50 uM) in the cell; 50 mM Na-HEPES, 100 mM KCl, 2 mM MgCl2, pH 7.5, 1 mM EGTA (Ca2+-free); 25 °C; one-site binding model
[2] = target: LQTS-associated calmodulin variant D131H (human); assay: as above
[3] = target: LQTS-associated calmodulin variant D95V (human); assay: as above
[4] = target: LQTS-associated calmodulin variant N97I (human); assay: ITC; Kv7.1-HB peptide titrated into CaM (~50 uM) in the cell; 50 mM Na-HEPES, 100 mM KCl, 2 mM MgCl2, pH 7.5, 5 mM CaCl2; 25 °C; two-site binding model
[5] = target: LQTS-associated calmodulin variant D131H (human); assay: as above
[6] = target: LQTS-associated calmodulin variant D95V (human); assay: as above

Substance: Kv7.1-HB(507-536) peptide, helix B of the KCNQ1 C-terminus
- Kd [1]: 2400 nM
- dH [1]: 4.7 kcal/mol
- stoichiometry N [1]: 0.8 sites
- dH [2]: 3.3 kcal/mol
- stoichiometry N [2]: 0.9 sites
- Kd [3]: 3900 nM
- dH [3]: 5.8 kcal/mol
- stoichiometry N [3]: 0.9 sites
- KD, first binding event [4]: 4.7 nM
- KD, second binding event [4]: 775 nM
- N, first binding event [4]: 1.1 sites
- N, second binding event [4]: 1.1 sites
- dH, first binding event [4]: -12.9 kcal/mol
- dH, second binding event [4]: -11.5 kcal/mol
- KD, first binding event [5]: 9.7 nM
- KD, second binding event [5]: 908 nM
- N, first binding event [5]: 0.8 sites
- N, second binding event [5]: 1.4 sites
- dH, first binding event [5]: -14.3 kcal/mol
- dH, second binding event [5]: -15.5 kcal/mol
- KD, first binding event [6]: 6.9 nM
- KD, second binding event [6]: 725 nM
- N, first binding event [6]: 0.8 sites
- N, second binding event [6]: 0.8 sites
- dH, first binding event [6]: -13.2 kcal/mol
- dH, second binding event [6]: -14.9 kcal/mol
